The text below walks through data of US12617818 (UNIVERSITY OF NORTH TEXAS, dated 2026).

In general, Kd refers to the free concentration of one partner at which half of the binding sites on the other are occupied at equilibrium, for simple one-to-one binding.

Where no end group is shown, it is not given here.

Assay [1] has as its target T1, Human β-cardiac myosin S2 peptide, wild-type (MYH7, 19 residues) (human, also: in FRET: FITC on N-terminus of one monomer, terbium-DTPA-cytosine chelate on C-terminal Lys of the other).
T1 construct: Chemically synthesized; forms a coiled-coil dimer; also called human cardiac myosin S2 peptide; cardiac muscle myosin S2^pep
T1 peptide: EMNERLEDEEEMNAELTAK
Put plainly: competitive ELISA, printed as 'binding constant'; differs from 1.37 nM at paragraph 347. As for the experimental part: (§1) Unbound protein complexes are washed off by PBS and blocking buffer. Enzyme conjugated secondary antibody is added to the wells and allowed to conjugate for an hour. After washing with detergent buffer, color developing substrate BCIP is added and development of color in the wells is recorded. The video is analyzed by Image J to get the OD in the wells.
Background: In an ELISA, binding on a coated surface is turned into a signal by an enzyme label.

The target of assay [2] is T1, Human β-cardiac myosin S2 peptide, …. Kind of assay: competitive ELISA (curve fit of OD), printed as 'binding efficiency'; antibody 1:64, 62.5 nM S2 peptide, stabilizer 0 to 250 nM, rabbit skeletal myosin coated. The method, then: as §1
For assay [3] the target is unchanged. Kind of assay: competitive ELISA, printed as 'binding efficiency'. As for the experimental part: as §1
The target is the same in assay [4]. Put plainly: FRET donor lifetime of labelled S2 peptide dimer titrated with stabilizer. The source says: (§2) Donor probe was conjugated to C-terminus of a myosin S2 peptide monomer and acceptor probe was conjugated to N-terminus of another myosin S2 peptide. In FRET as lanthanide of the donor probe decays, energy goes to fluorescein and it emits out energy in form of light. In addition, as the monomers come closer to each other, lifetime of donor decreases indicating a decrease in distance between donor and acceptor probe; an opposite effect is observed, with an increase in distance between the probes, […]. Lifetime of donor probe was measured in milliseconds.
(§3) During FRET assay, cardiac muscle myosin S2^pep was treated with increasing concentrations of anti-S2 peptides. […] Dilution to decrease the concentration of dimer cardiac muscle myosin S2^pep was performed to measure binding affinity of coiled-coil peptide and in turn to measure minimal concentration for stable dimer formation (FIG. 25A). […] (FIG. 25B)

Assay [5] addresses T2, Cardiac muscle myosin S2 synthetic peptide for GFS, E930del mutant (MYH7 E930del), 35 residues (human, not fully specified).
T2 peptide: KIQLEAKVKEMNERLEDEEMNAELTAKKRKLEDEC
Put plainly: cell-based or functional assay.

Assay [6] deals with T3, Cardiac muscle myosin S2 synthetic peptide for GFS (MYH7), 36 residues (human).
T3 peptide: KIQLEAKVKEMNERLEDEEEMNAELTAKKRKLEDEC
Kind of assay: cell-based or functional assay.

In assay [7] the target is T4, Skeletal muscle myosin S2 synthetic peptide for GFS (MYH2), 36 residues (human).
T4 peptide: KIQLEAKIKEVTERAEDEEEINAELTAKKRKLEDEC
Kind of assay: cell-based or functional assay.

Assay [8] deals with T5, Smooth muscle myosin S2 synthetic peptide for GFS (MYH11), 36 residues (human).
T5 peptide: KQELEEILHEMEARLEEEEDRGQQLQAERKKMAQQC
Kind of assay: cell-based or functional assay.

Assay [9] addresses T6, Human β-cardiac mutant myosin S2 peptide (E930del), 18 residues (human, also: in FRET: FITC on N-terminus of one monomer, terbium-DTPA-cytosine chelate on C-terminal Lys of the other).
T6 construct: Deletion of glutamate 930 already in the entry; also called Edel930; ΔE930
T6 peptide: EMNERLEDEEMNAELTAK
Put plainly: FRET donor lifetime of 0.1 µM labelled S2 peptide dimer titrated with stabilizer.

For assay [10], the target named is T7, Human β-cardiac mutant myosin S2 peptide (E924K), 19 residues (human, also: in FRET: FITC on N-terminus of one monomer, terbium-DTPA-cytosine chelate on C-terminal Lys of the other).
T7 construct: E924K already in the entry; also called Cardiac Myosin S2 Mutant, E924K
T7 peptide: EMNKRLEDEEEMNAELTAK
Described as above.

For assay [11], the target named is T8, Human skeletal myosin S2 peptide (MYH2), 19 residues (human, also: in FRET: FITC on N-terminus of one monomer, terbium-DTPA-cytosine chelate on C-terminal Lys of the other).
T8 construct: also called skeletal muscle myosin S2^pep
T8 peptide: EVTERAEDEEEINAELTAK
The description is as above.

The target in assay [12] is T7, Human β-cardiac mutant myosin S2 …. Put plainly: FRET donor lifetime of 0.1 µM labelled dimer titrated with stabilizer; text value and unit differ from Table 3.
From the text: as §2

Assay [13] concerns the target T2, Cardiac muscle myosin S2 synthetic …. Kind of assay: cell-based or functional assay.
Assay [14] deals with T3, Cardiac muscle myosin S2 synthetic …. Kind of assay: cell-based or functional assay.
Assay [15] has as its target T4, Skeletal muscle myosin S2 synthetic …. Kind of assay: cell-based or functional assay.
The target of assay [16] is Rabbit skeletal myosin (rabbit). Put plainly: cell-based or functional assay.
The target of assay [17] is T9, Rabbit skeletal myosin (rabbit).
T9 construct: mature; also called rabbit whole skeletal myosin; rabbit skeletal myosin S2
T9 sequence (Q28641 whole entry, chain 1 of 3): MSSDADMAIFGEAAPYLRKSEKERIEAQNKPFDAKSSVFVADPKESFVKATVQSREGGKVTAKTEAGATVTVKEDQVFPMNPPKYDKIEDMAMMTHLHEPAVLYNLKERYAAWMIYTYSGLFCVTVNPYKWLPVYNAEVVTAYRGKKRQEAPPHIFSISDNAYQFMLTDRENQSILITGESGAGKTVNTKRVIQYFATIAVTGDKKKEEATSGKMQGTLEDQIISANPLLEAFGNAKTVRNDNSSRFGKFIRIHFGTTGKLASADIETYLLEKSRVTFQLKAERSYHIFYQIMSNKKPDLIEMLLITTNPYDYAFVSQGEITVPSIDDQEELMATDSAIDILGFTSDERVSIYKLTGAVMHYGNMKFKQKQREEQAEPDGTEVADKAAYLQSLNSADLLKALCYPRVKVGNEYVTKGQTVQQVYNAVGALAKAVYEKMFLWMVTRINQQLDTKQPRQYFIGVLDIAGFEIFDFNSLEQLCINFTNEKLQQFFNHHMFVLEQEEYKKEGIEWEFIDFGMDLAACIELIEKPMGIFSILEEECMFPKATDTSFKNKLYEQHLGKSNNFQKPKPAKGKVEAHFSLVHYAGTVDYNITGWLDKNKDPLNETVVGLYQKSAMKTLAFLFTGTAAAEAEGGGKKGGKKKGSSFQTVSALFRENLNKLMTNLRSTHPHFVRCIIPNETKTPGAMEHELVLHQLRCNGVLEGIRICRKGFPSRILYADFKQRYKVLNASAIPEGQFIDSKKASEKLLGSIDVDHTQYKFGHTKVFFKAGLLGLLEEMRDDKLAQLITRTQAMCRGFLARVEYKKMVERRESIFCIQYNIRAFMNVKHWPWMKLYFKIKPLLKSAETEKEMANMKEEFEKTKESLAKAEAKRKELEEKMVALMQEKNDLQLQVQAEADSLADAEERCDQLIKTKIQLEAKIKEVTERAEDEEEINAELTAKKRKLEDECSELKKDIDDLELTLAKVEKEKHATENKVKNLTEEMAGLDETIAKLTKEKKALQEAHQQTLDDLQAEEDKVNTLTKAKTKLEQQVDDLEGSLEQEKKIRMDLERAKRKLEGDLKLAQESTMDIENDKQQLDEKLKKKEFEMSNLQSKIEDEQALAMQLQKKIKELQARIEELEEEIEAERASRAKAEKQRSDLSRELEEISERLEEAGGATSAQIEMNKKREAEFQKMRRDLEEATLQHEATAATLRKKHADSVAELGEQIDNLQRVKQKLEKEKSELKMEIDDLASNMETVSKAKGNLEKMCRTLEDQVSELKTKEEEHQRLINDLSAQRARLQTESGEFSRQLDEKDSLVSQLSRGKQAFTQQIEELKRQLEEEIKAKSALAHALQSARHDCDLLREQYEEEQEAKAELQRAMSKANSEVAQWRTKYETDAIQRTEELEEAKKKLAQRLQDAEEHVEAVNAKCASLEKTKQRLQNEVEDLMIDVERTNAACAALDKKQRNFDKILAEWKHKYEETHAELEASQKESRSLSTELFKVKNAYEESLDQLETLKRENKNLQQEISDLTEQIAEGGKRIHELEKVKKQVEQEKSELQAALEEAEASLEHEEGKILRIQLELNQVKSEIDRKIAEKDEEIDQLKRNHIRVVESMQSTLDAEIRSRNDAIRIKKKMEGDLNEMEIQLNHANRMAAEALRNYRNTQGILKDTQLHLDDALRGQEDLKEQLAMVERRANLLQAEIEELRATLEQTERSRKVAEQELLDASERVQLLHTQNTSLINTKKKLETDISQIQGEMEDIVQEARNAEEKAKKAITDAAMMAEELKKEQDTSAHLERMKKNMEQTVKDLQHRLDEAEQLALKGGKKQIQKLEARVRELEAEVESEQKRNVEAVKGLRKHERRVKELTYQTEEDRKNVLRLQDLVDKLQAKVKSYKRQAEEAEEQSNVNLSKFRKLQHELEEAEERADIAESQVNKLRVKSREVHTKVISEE
T9 sequence (P02602 2-192, chain 2 of 3, further chain): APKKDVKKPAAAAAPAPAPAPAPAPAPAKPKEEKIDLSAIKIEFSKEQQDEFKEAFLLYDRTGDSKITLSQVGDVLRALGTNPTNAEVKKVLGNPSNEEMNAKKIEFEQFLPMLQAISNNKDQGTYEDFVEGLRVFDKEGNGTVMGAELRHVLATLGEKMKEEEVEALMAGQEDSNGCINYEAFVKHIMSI
T9 sequence (P02608 2-170, chain 3 of 3, further chain): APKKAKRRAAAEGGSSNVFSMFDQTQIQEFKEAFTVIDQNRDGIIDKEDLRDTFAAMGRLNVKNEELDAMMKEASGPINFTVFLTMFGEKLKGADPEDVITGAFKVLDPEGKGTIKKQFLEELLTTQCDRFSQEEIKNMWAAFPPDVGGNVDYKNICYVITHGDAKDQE
Put plainly: 'previously calculated Kd values'; row stands under the IC-50 head for stabilizers, read as unlabeled stabilizer; method and source of the myosin not stated.

The target in assay [18] is T10, Human smooth myosin S2 peptide (MYH11), 21 residues (human, in FRET: FITC on the N-terminus of one monomer, terbium-DTPA-cytosine chelate on the C-terminal lysine of the other).
T10 construct: also called smooth muscle myosin S2^pep
T10 peptide: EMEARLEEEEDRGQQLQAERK
Kind of assay: FRET donor lifetime of the labelled smooth muscle S2 peptide dimer titrated with the peptide.
From the text: as §2
The specificity of peptides were later tested on the myosin S2 of the smooth muscle (MYH11). […] Smooth muscle myosin S2^pep was treated with different concentrations of anti-S2 peptides.

Assay [19] deals with T8, Human skeletal myosin S2 peptide …. Put plainly: FRET donor lifetime of 2 µM labelled S2 peptide dimer titrated with destabilizer.
From the text: as §2
Like cardiac muscle myosin S2^pep, dilution by decreasing the concentration of dimer skeletal muscle myosin S2^pep was performed and further was treated with different concentrations of anti-S2 peptides (FIG. 28A, 28B). Different concentrations of dimer skeletal muscle myosin S2^pep was used with anti-S2 peptides.

Assay [20] addresses T9, Rabbit skeletal myosin. Put plainly: 'previously calculated Kd values, concentrations at which half of myosin is saturated'; method and source of the myosin not stated.
The target in assay [21] is T1, Human β-cardiac myosin S2 peptide, …. Put plainly: FRET donor lifetime of labelled S2 peptide dimer titrated with destabilizer.
From the text: as §2, §3

The target is the same in assay [22]. Kind of assay: competitive ELISA (FIG. 44); differs from 6 nM at paragraph 385. As for the experimental part:
(§4) The assay began with coating 96 well microtiter plate with rabbit skeletal myosin molecule overnight. […] After incubation at room temperature for an hour, the unbound protein complexes were washed with PBS and blocking buffer. Enzyme conjugated secondary antibody were added on to the wells and allowed conjugate for an hour at room temperature. After washing the wells with detergent buffer, color developing BCIP substrate were added on to the wells. Images of the color developed in the wells were captured and analyzed in Image J.

Assay [23] has the same target. Kind of assay: competitive ELISA (curve fit of OD, FIG. 44B); antibody 1:64, 62.5 nM human cardiac S2 peptide, rabbit skeletal myosin coated; the sentence does not name the target. As for the experimental part:
as §4

B1: Stabilizer peptide (peptide)
peptide: KKKKKKKKFKAKKKKKK
notes: also called stabilizing peptide; unlabeled stabilizer
Take B1: the Kd in assay [1] was found to be 0.00138 µM; in [2], 0.00137 µM; in [3] it was 0.001 µM; in assay [4] it was 0.0212 µM; in [9], 0.238 µM; in assay [10] it was 0.034 µM. The Kd in assay [11] was 0.0197 µM; in assay [12] it was 36200 µM; in the assay with Rabbit skeletal myosin [17] it was 0.006 µM. Also, the “GFS: force to uncoil the S2 peptide dimer to a length of 10 nm, with stabilizer” value in assay [5] was 1.07 pN; in [6], 1.55 pN; in assay [7] it was 0.628 pN; in [8] it was 0.496 pN. The results for the “GFS: fold increase of the force required to uncoil the coiled coil against control” value in [13], in [14] and in [15] were 2.6 times, 1.8 times and 1.4 times, respectively. The “GFS: fold of force required to uncoil myosin in presence of stabilizer against control” value in the assay with Rabbit skeletal myosin [16] was determined as 1.5 times. Further, the binding result in assay [18] was “no binding”.

B2: Destabilizer peptide (peptide)
peptide: EMNERLEDEREMKAELTAK
notes: also called destabilizing peptide; unlabeled destabilizer
In the case of B2, the Kd in assay [19] is 0.469 µM; with Rabbit skeletal myosin [20], 0.075 µM; in assay [21], 1.33 µM; in assay [22], 0.001 µM; in assay [23] it was 0.006 µM. Also, the “GFS: force to uncoil the S2 peptide dimer to a length of 10 nm, with destabilizer” value was determined as 0.436 pN in assay [6], 0.184 pN in assay [7] and 0.451 pN in assay [8]. Moreover, the “GFS: fold decrease of the force required to uncoil the coiled coil against control” value in [14] is 1.98 times; in assay [15], 2.45 times. In addition, in the assay with Rabbit skeletal myosin [16], the “GFS: fold less force required to uncoil myosin in presence of destabilizer against control” value worked out at 1.6 times. The binding result in assay [18] is listed as “no binding”.
